Biological target: T1, synthetic peptide substrate ALERTFLSFPT
T1 chain: ALERTFLSFPT

B1: aspartyl proteinase purified from the adult hookworm Necator americanus (protein)
chain: GVYKIPLKRITPPMIKMLRAGTWETYVEGMRKRQLQLLKEHKVHIQDVLGYANMEYLGEITIGTPQQKFLVVLDTGSSNLWVPDDSCYKEKRPDRCLVSNCDAGLVCQVFCPDPKCCEHTREFKQVNACKDKHRFDQKNSNTYVKTNKTWAIAYGTGDARGFFGRDTVRLGAEGKDQLVINDTWFGQAEHIAEFFSNTFLDGILGLAFQELSEGGVAPPIIRAIDLGLLDQPIFTVYFENVGDKEGVYGGVFTWGGLDPDHCEDEVTYEQLTEATYWQFRLKGVSSKNFSSTAGWEAISDTGTSLNGAPRGILRSIARQYNGQYVASQGLYVVDCSKNVTVDVTIGDRNYTMTAKNLVLEIQADICIMAFFEMDMFIGPAWILGDPFIREYCNIHDIEKKRIGFAAVKH
With B1 the “substrate specificity assay (cleavage of a synthetic peptide substrate)” value was “the proteinase cleaved the synthetic peptide substrate ALERTFLSFPT (SEQ ID NO. 7)”.

From patent US20030176382
